We go through 11 molecules from patent US20240166738A1 (priority 2021, published 2024).

Changes are numbered by the printed parent chain.

Sequences and labels used below:
B1: TM-12: anti-TMEM106B monoclonal antibody; CDR-H1-3 SEQ ID NO: 13, 46, 89; CDR-L1-3 SEQ ID NO: 130, 169, 194 (antibody, V domains shown)
VH: EVQLQQSGAELMRPGASVKLSCTASGFNIQDYYMYWVKQRPEQGLEWIGRIDPEDGDAEYAPKFQGKATMTADTSSNTAYLQLSSLTSEDTAVYYCSTRVIYDGYYRTMDCWGQGTSVTVSS
VL: DVLMTQIPLSLPVSLGDQASISCRSSQTIVHSNGNTYLEWYLKKPGQSPKLLIDKISNRFSGVPDRFSGSGSGTDFTLKISRVEAEDLGVYYCFQGSHVPYTFGGGTKLEIK
B2: TM-19: anti-TMEM106B monoclonal antibody; CDR-H1-3 SEQ ID NO: 13, 53, 96; CDR-L1-3 SEQ ID NO: 136, 175, 200 (antibody, V domains shown)
VH: DVQLQQSGAELVRPGASVKLSCTASGFNIKDYYMYWVKQRPEQGLEWIGRIDPEDGDTENAPKFRGMATMTADTSSNTAYLQLNSLTSEDTAVYYCTTRIGNLYHVMDYWGHGTSVTVSS
VL: B1 VL with I7T, T28S, K43Q, S48A, I56V, S57F, Y101F, G105S
B3: TM-11: anti-TMEM106B monoclonal antibody; CDR-H1-3 SEQ ID NO: 12, 45, 88; CDR-L1-3 SEQ ID NO: 129, 170, 193 (antibody, V domains shown)
VH: QVQLKQSGPGQVQPSQSLSITCTVSGFSLSDYGVHWVRQSPGKGLEWLGVIWNNGNTDYNAAFISRLSINKDNSKSQVFFKMTSLQADDTAIYYCVRSLRPLHFDYWGQGTTVTVSS
VL: DIVMTQSPSSLTMSVGQKVTMHCKSSQSLLNSNNLQNYLAWYQQKPGQSPTLLVYFASIRESGVPDRFIGSGSGTDFTLTISSVQAEDLADYFCQQHYNTPFTFGSGTKLEIR
B4: TM-13: anti-TMEM106B monoclonal antibody; CDR-H1-3 SEQ ID NO: 14, 47, 90; CDR-L1-3 SEQ ID NO: 131, 171, 195 (antibody, V domains shown)
VH: QVQLQQSGAELVKPGASVKMSCKASGYTFTTFPIEWMKQSHGKGLEWIGNFHPYNDDTKYNEKFKGKATLTVDKSSSTVYLDLSRLTSDDSAVYYCARYFYGGMDYWGQGTSVTVSS
VL: DIQMTQSPASLSVSVGETVTITCRASENIYSSLGWYQQKQGESPQLLVFAATNLADGVPSRFSGSGSGTQYSLKINSLQSEDFGTYYCQHLWSIPWTFGGGTRLEIK
B5: TM-84: anti-TMEM106B monoclonal antibody; VH SEQ ID NO: 489, VL SEQ ID NO: 524 (antibody, V domains shown)
VH: B4 VH with S40N, G44S, D73E, D82E
VL: B4 VL with Q37H, E42K, I94V, R103K
modifications: Variable Heavy Chain -- TM-84; Variable Light Chain -- TM-84
B6: TM-21: anti-TMEM106B monoclonal antibody; CDR-H1-3 SEQ ID NO: 18, 54, 97; CDR-L1-3 SEQ ID NO: 137, 168, 201 (antibody, V domains shown)
VH: EVQLVESGGGLVKPGGSLKLSCAASGFTFSNYAMSWVRETPEKRLEWVAFISDGGGYIYYADNVKDRFTISRDNAKNNLYLQMRHLKSEDTAMYYCARDGGTGFTYWGQGTLVTVSV
VL: DIVMTQAAFSNPVTLGTSASISCRSSKSLLHSNGITYLFWYLQKPGQSPQLLIYQMSNLASGVPDRFSSSGSGTDFTLRISRVEAEDVGVYYCVQNLELPYTFGGGTKLEIK
B7: TM-18: anti-TMEM106B monoclonal antibody; CDR-H1-3 SEQ ID NO: 5, 52, 95; CDR-L1-3 SEQ ID NO: 135, 174, 199 (antibody, V domains shown)
VH: EVRLQQSGPELVKPGASVKISCKTSGYTFTDYYMNWVKQSHGKSLEWIVNINPNNGDAFYNQKFKGKATLTVDKSSNTAYLDLRSLTSEDSAVYYCAREGQLRLRRVYAMDYWGQGTSVTVSS
VL: DIVLAQSPASLAVSLGQRATISCRASKSVSISVYTYVHWYQQKPGQPPKLLIYLASNLESGVPARFSGSGSGTDFTLNIHPVEEEDAATYYCQHSRELPYTFGGGTKLEIK
B8: TM-15: anti-TMEM106B monoclonal antibody; CDR-H1-3 SEQ ID NO: 15, 49, 92; CDR-L1-3 SEQ ID NO: 133, 171, 197 (antibody, V domains shown)
VH: QVQLQQPGAEFVRPGASVKLSCKASGYTFTNYWITWVKQRPGHGLEWIGDIYPGSGNSNYNESFKRKATLTVDTSSSTAYMHLSSQTSEDSAVYFCARKAYGGFPYWGQGTLVTVSA
VL: DIQMTQSPASLSVSVGETVTITCRVSENIYNNLAWYQQKQEKSPQLLVFAATNLADGVPSRFSGSGSGTQFSLKINSLQSEDFGTYYCQHFWDTPFTFGSGTKLEIK
B9: TM-10: anti-TMEM106B monoclonal antibody; CDR-H1-3 SEQ ID NO: 11, 44, 87; CDR-L1-3 SEQ ID NO: 128, 169, 192 (antibody, V domains shown)
VH: QVQLQQSGAELVKPGASVKISCKGSGYAFSSYWMNWVKQRPGKGLEWIGQIYPGDGDTNYNGKFKGKATLTADKSSTTAYIHLSSLTSEDSAVYFCARWGHYDEAMDDWGQGTSVTVSS
VL: DVVMTQTPLSLPVSLGDQASISCRSSQSLVHSNGKTYLHWYVQKPGQSPKLLIYKISNRFSGVPDRFSGSGSGTDFTLKISRVEAEDLGVYFCSQITHVPWTFGGGTKLESK
B10: TM-7: anti-TMEM106B monoclonal antibody; CDR-H1-3 SEQ ID NO: 8, 41, 84; CDR-L1-3 SEQ ID NO: 126, 166, 190 (antibody, V domains shown)
VH: EVQLQQSGPVLVKPGPPVKISCKASGFTFTDYYIHWVKLSHGKSLEWIGLVYPYNGDTDYNQKFKGKATLTVDTSSSTAYMELNSLTSEDSAVYYCARTYYANSPDYWGQGTTVTVSS
VL: DIVMTQSPSSLSVSAGEKVTMSCKSSQSLLNSGNQRNYLAWYQQKPGQPPKLLIYGASTRESGVPDRFTGSGSGTDFTLTISNVQAEDLAVYYCQNDHSYPLTFGAGTKLELK
B11: TM-86: anti-TMEM106B monoclonal antibody; VH SEQ ID NO: 491, VL SEQ ID NO: 526 (antibody, V domains shown)
VH: EVQLQQSGPVLVKPGASVKMSCKASGYTFTDYYIHWVKQSHGRSLEWIGVISPYNDNTNYNQKFKGKATLTVDKSSSTAYMELNSLTSEDSAVYYCVRTYYSNYFDYWGQGTTLTVSS
VL: B10 VL with R36K, Y42H, K45R, D76E, N83S
modifications: Variable Heavy Chain -- TM-86; Variable Light Chain -- TM-86

Sequence of GST-TMEM106B (truncated, comprising amino acids 122-210 of SEQ ID NO:1) (Q9NUM4 122-210): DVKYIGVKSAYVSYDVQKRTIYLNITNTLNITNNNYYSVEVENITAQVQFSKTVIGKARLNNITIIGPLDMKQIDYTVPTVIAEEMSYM

One test concerns the target GST-TMEM106B (truncated, comprising amino acids 122-210 of SEQ ID NO:1) (Homo sapiens, UniProt Q9NUM4). As to the kind of experiment: Pre-mix epitope binning of anti-TMEM106B antibodies (Carterra / Lake Pharma). The test is classed as binding. Set-up: key to epitope bin: Bin 1: competes for binding to the same or overlapping TMEM106B region as the TM1, TM17, TM22, TM26, TM79, and/or TM82 antibodies; Bin 2: competes for binding to the same or overlapping TMEM106B region as the TM3, TM9, TM10, TM11, TM12, TM13, TM18, TM19, TM21, TM24, TM25, TM32, TM35, TM37, TM42, TM45, TM48, TM54, TM59, TM60, TM61, and/or TM76 antibodies; Bin 3: competes for binding to the same or overlapping TMEM106B region as the TM7, TM15, TM83, and/or TM84 antibodies; Bin 4: competes for binding to the same or overlapping TMEM106B region as the TMS, TM28, TM29, TM30, TM63, TM64, TM72, TM78, TM80, TM86, and/or TM88 antibodies; Bin 5: does not bind to a truncated TMEM106B comprising amino acids 122-210 of SEQ ID NO:1. Conditions: competition for binding to truncated GST-TMEM106B (amino acids 122-210). As for the experimental part: (§1) Monoclonal anti-TMEM106B antibodies were immobilized to a CMD 50M chip (Xantec # SPMXCMD5OM lot# SCCMD50M0416). The running buffer was HBS-EP+ with 1 mg/mL BSA. The GST-TMEM106B (truncated, comprising amino acids 122-210 of SEQ ID NO:1) antigen was prepared at a final concentration of 55 nM (corresponding to 2 μg/mL) and mixed with the competing analyte anti-TMEM106B antibodies at a final concentration of 333 nM (corresponding to 50 μg/mL) or compared to a buffer control. Samples were injected for 5 minutes over the array and regenerated after every cycle with 1 minute of two parts Pierce IgG-Elution buffer (ThermoFisher Cat#21004) and 1 part of 10 mM Glycine, pH 2.0 (Carterra).
Anti-TMEM106B antibodies sorted into various competing bins and resulting binning profiles. […] Antibodies within Bin 3 or Bin 4 partially block Bin 2 antibodies.
as §1, with “SPMXCMD50M” for “SPMXCMD5OM”, “lmg/ml” for “1 mg/mL”, “(truncated)” for “(truncated, comprising amino acids 122-210 of SEQ ID NO:1)”, “μg/ml)” for “μg/mL)”
For B1, the epitope bin result is “Bin 2”.

Regarding B2, the epitope bin entry is “Bin 2”.

For the molecule B3, the epitope bin result is reported as “Bin 2”.

In the case of B4, the epitope bin result is listed as “Bin 2”.

On to B5, for which the epitope bin entry is listed as “Bin 3”.

For B6, the epitope bin entry was “Bin 2”.

Regarding B7, the epitope bin entry is recorded as “Bin 2”.

Regarding B8, the epitope bin entry was “Bin 3”.

Take B9: the epitope bin entry is reported as “Bin 2”.

For B10, the epitope bin entry is “Bin 3”.

Consider B11, for which the epitope bin entry is recorded as “Bin 4”.

Still in this test, the particulars now being: epitope bin number; pre-mix binning on truncated GST-TMEM106B.
Regarding B1, the “Binding Community/Bin” value was found to be 2.

Turning to B2, the “Binding Community/Bin” value amounted to 2.

Regarding B3, the “Binding Community/Bin” value is 2.

B4: the “Binding Community/Bin” value is listed as 2.

As to B5, the “Binding Community/Bin” value was found to be 3.

As for B6, the “Binding Community/Bin” value was 2.

With B7, the “Binding Community/Bin” value was determined as 2.

As for B8, the “Binding Community/Bin” value was 3.

As for B9, the “Binding Community/Bin” value came out at 2.

B10: the “Binding Community/Bin” value amounted to 3.

As to B11, the “Binding Community/Bin” value stood at 4.
